*1 amine or outer side, *2 acyl side, *3 side chain or, on linkers, in order; H or OH if unused. Where a SMILES comes first, the peptide text is derived from it. Where no end group is shown, it is not given here. Side-chain parts run from the residue outwards. [ ]: non-standard residue; d: D form. The star is where a group is joined. C20 diacid = O=C(O)CCCCCCCCCCCCCCCCCCC(=O)*; C18 diacid = O=C(O)CCCCCCCCCCCCCCCCC(=O)*; C16 diacid = O=C(O)CCCCCCCCCCCCCCC(=O)*; γGlu = O=C(O)[C@H](CCC(=O)[*:2])N[*:1]; NMeI = CC[C@H](C)[C@H](NC)C(=O)O; Pentanoyl = CCCCC(=O)*; AEEA = NCCOCCOCC(=O)O; Aib = CC(C)(N)C(=O)O
T1: CRF1R (corticotropin-releasing factor receptor 1), on the CRF1R-overexpression CHO-K1 cell line clone 2 (UniProt P34998 24-415, limits assumed)
T1 sequence (looked up): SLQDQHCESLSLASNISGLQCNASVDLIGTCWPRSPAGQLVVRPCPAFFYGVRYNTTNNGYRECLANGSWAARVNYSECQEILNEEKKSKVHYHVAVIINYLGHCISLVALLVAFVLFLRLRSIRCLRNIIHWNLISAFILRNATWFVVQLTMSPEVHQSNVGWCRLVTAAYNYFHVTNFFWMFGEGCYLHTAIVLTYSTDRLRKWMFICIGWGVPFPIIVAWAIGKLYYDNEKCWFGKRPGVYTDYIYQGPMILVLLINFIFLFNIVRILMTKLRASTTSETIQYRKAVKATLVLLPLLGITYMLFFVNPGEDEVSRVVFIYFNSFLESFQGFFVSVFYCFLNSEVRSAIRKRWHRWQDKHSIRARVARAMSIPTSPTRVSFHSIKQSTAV


Experiments:
[1] = tested on: human LAD2 cells; type: cell-based
Experimental: LAD2 cells (20000 cells/well, 96-well plates and 10,000 cells/well in 384-well plates) were incubated with compounds for 30 min. The R-hexosaminidase released into the supernatants and in cell lysates was quantified using the fluorogenic substrate 4-methylumbelliferyl-N-acetyl-b-D-glucosaminide.
On the day of the assay, the lyophilized peptides were dissolved in DMSO and/or PBS 1× pH 7.4, to obtain stock solutions. The stock solutions were used to prepare working serial dilutions to have final concentrations in assay ranging from 50, 100 or 300 to 0.1 or 0.001 μM. Each peptide was tested in biological duplicates. When compounds were dissolved in DMSO, the final solvent concentration in assay was 0.5% (v/v).
The percentage of degranulation, expressed as % of R-hexosaminidase release, was calculated by dividing the fluorescence signal of the supernatant by the sum of the signals from the supernatant and cell pellet (lysed with Triton X-100, final 1%) and multiplying by 100.
Dose-response curves were generated by plotting the % of R-hexosaminidase release versus total release of cells treated with triton (y-axis) against the concentrations of peptides tested (x-axis). The Mast Cell Degranulation (MCD) EC50 values and standard errors were calculated using XLfit 5.5.0.5 based on the following equation:
4 Parameter Sigmoidal Model: f=(A+((B−A)/(1+((C/x)^D))))
where A=Emin, B=Emax, C=EC50 and D=slope

[2] = biological target: T1, CRF1R (corticotropin-releasing factor …); experiment: cell-based or functional assay

| Molecule | EC50 [1] | EC50 [nM] (cAMP, CRF1R-overexpression CHO-K1 cells) [2] | Emax (% I) (cAMP, 100% = Sauvagine at 100 nM) [2] |
| --- | --- | --- | --- |
| CC[C@H](C)[C@H](NC(C)=O)C(=O)N[C@H](C(=O)N[C@@H](CC(C)C)C(=O)N[C@@H](CO)C(=O)N[C@@H](CC(C)C)C(=O)N[C@@H](CC(=O)O)C(=O)N[C@@H](C(=O)N1CCC[C@H]1C(=O)N[C@H](C(=O)N[C@@H](CCCCN)C(=O)N[C@@H](CC(C)C)C(=O)N[C@@H](CCCCNC(=O)CC[C@H](NC(=O)CCCCCCCCCCCCCCC(=O)O)C(=O)O)C(=O)N[C@@H](CCCCN)C(=O)N[C@H](C(=O)N[C@@H](CC(C)C)C(=O)N[C@@H](CC(C)C)C(=O)N[C@@H](CCC(=O)O)C(=O)N[C@@H](CCC(N)=O)C(=O)N[C@@H](CCC(=O)O)C(=O)N[C@@H](CCCCN)C(=O)N[C@@H](CCC(N)=O)C(=O)N[C@@H](CCCCN)C(=O)N[C@@H](CCCCN)C(=O)N[C@@H](CCC(N)=O)C(=O)N[C@@H](CCCNC(=N)N)C(=O)N[C@@H](CCC(=O)O)C(=O)N[C@@H](CCC(N)=O)C(=O)N[C@@H](C)C(=O)N[C@@H](CCC(=O)O)C(=O)N[C@H](C(=O)N[C@@H](CC(N)=O)C(=O)N[C@@H](CCC(=O)O)C(=O)N[C@@H](CCC(N)=O)C(=O)N[C@H](C(=O)N[C@@H](CC(C)C)C(=O)N[C@@H](C)C(=O)N[C@@H](CCC(N)=O)C(=O)N[C@H](C(N)=O)C(C)C)[C@@H](C)CC)[C@@H](C)O)[C@@H](C)CC)[C@@H](C)CC)C(C)C)C(C)C [56 (comp)] (Ac-IVLSLD[dV]PIKLK([γGlu-C16 diacid])KILLEQEKQKKQREQAETNEQILAQV-NH2) | 38500 nM |  |  |
| CC[C@H](C)[C@H](N)C(=O)N[C@H](C(=O)N[C@@H](CC(C)C)C(=O)N[C@@H](CO)C(=O)N[C@@H](CC(C)C)C(=O)N[C@@H](CC(=O)O)C(=O)N[C@H](C(=O)N1CCC[C@H]1C(=O)N[C@H](C(=O)N[C@@H](CCCCN)C(=O)N[C@@H](CC(C)C)C(=O)N[C@@H](CCCCNC(=O)COCCOCCNC(=O)COCCOCCNC(=O)CC[C@H](NC(=O)CCCCCCCCCCCCCCCCC(=O)O)C(=O)O)C(=O)N[C@@H](CCCCN)C(=O)N[C@H](C(=O)N[C@@H](CC(C)C)C(=O)N[C@@H](CC(C)C)C(=O)N[C@@H](CCC(=O)O)C(=O)N[C@@H](CCC(N)=O)C(=O)N[C@@H](CCC(=O)O)C(=O)N[C@@H](CCCCN)C(=O)N[C@@H](CCC(N)=O)C(=O)N[C@@H](CCCCN)C(=O)N[C@@H](CCCCN)C(=O)N[C@@H](CCC(N)=O)C(=O)N[C@@H](CCCNC(=N)N)C(=O)N[C@@H](CCC(=O)O)C(=O)N[C@@H](CCC(N)=O)C(=O)N[C@@H](C)C(=O)N[C@@H](CCC(=O)O)C(=O)N[C@H](C(=O)N[C@@H](CC(N)=O)C(=O)N[C@@H](CCCCN)C(=O)N[C@@H](CCC(N)=O)C(=O)N[C@H](C(=O)N[C@@H](CC(C)C)C(=O)N[C@@H](C)C(=O)N[C@@H](CCC(N)=O)C(=O)N[C@H](C(N)=O)C(C)C)[C@@H](C)CC)[C@@H](C)O)[C@@H](C)CC)[C@@H](C)CC)C(C)C)C(C)C [149 (comp)] (H-IVLSLDVPIKLK([AEEA-AEEA-γGlu-C18 diacid])KILLEQEKQKKQREQAETNKQILAQV-NH2) | 50400 nM |  |  |

Next, values leading:

| EC50 [1] | EC50 [nM] (cAMP, CRF1R-overexpression CHO-K1 cells) [2] | Emax (% I) (cAMP, 100% = Sauvagine at 100 nM) [2] | Molecule |
| --- | --- | --- | --- |
|  | > 250 nM | 0 % I | [NMeI]VLSLD[dV]PIKLK([AEEA-AEEA-γGlu-C20 diacid])KILLEQEKQK[Aib]QREQAETN[Aib]QILAQV-NH2 (N-terminus assumed; SMILES CC[C@H](C)[C@H](NC)C(=O)N[C@H](C(=O)N[C@@H](CC(C)C)C(=O)N[C@@H](CO)C(=O)N[C@@H](CC(C)C)C(=O)N[C@@H](CC(=O)O)C(=O)N[C@@H](C(=O)N1CCC[C@H]1C(=O)N[C@H](C(=O)N[C@@H](CCCCN)C(=O)N[C@@H](CC(C)C)C(=O)N[C@@H](CCCCNC(=O)COCCOCCNC(=O)COCCOCCNC(=O)CC[C@H](NC(=O)CCCCCCCCCCCCCCCCCCC(=O)O)C(=O)O)C(=O)N[C@@H](CCCCN)C(=O)N[C@H](C(=O)N[C@@H](CC(C)C)C(=O)N[C@@H](CC(C)C)C(=O)N[C@@H](CCC(=O)O)C(=O)N[C@@H](CCC(N)=O)C(=O)N[C@@H](CCC(=O)O)C(=O)N[C@@H](CCCCN)C(=O)N[C@@H](CCC(N)=O)C(=O)N[C@@H](CCCCN)C(=O)NC(C)(C)C(=O)N[C@@H](CCC(N)=O)C(=O)N[C@@H](CCCNC(=N)N)C(=O)N[C@@H](CCC(=O)O)C(=O)N[C@@H](CCC(N)=O)C(=O)N[C@@H](C)C(=O)N[C@@H](CCC(=O)O)C(=O)N[C@H](C(=O)N[C@@H](CC(N)=O)C(=O)NC(C)(C)C(=O)N[C@@H](CCC(N)=O)C(=O)N[C@H](C(=O)N[C@@H](CC(C)C)C(=O)N[C@@H](C)C(=O)N[C@@H](CCC(N)=O)C(=O)N[C@H](C(N)=O)C(C)C)[C@@H](C)CC)[C@@H](C)O)[C@@H](C)CC)[C@@H](C)CC)C(C)C)C(C)C) [peptide of SEQ ID NO: 239] |
|  | 90.5 nM | 62 % I | Pentanoyl-VLSLD[dV]PIGLK([γGlu-C20 diacid])KILLEQEKQKKQREQAETN[Aib]QILAQV-NH2 (SMILES CCCCC(=O)N[C@H](C(=O)N[C@@H](CC(C)C)C(=O)N[C@@H](CO)C(=O)N[C@@H](CC(C)C)C(=O)N[C@@H](CC(=O)O)C(=O)N[C@@H](C(=O)N1CCC[C@H]1C(=O)N[C@H](C(=O)NCC(=O)N[C@@H](CC(C)C)C(=O)N[C@@H](CCCCNC(=O)CC[C@H](NC(=O)CCCCCCCCCCCCCCCCCCC(=O)O)C(=O)O)C(=O)N[C@@H](CCCCN)C(=O)N[C@H](C(=O)N[C@@H](CC(C)C)C(=O)N[C@@H](CC(C)C)C(=O)N[C@@H](CCC(=O)O)C(=O)N[C@@H](CCC(N)=O)C(=O)N[C@@H](CCC(=O)O)C(=O)N[C@@H](CCCCN)C(=O)N[C@@H](CCC(N)=O)C(=O)N[C@@H](CCCCN)C(=O)N[C@@H](CCCCN)C(=O)N[C@@H](CCC(N)=O)C(=O)N[C@@H](CCCNC(=N)N)C(=O)N[C@@H](CCC(=O)O)C(=O)N[C@@H](CCC(N)=O)C(=O)N[C@@H](C)C(=O)N[C@@H](CCC(=O)O)C(=O)N[C@H](C(=O)N[C@@H](CC(N)=O)C(=O)NC(C)(C)C(=O)N[C@@H](CCC(N)=O)C(=O)N[C@H](C(=O)N[C@@H](CC(C)C)C(=O)N[C@@H](C)C(=O)N[C@@H](CCC(N)=O)C(=O)N[C@H](C(N)=O)C(C)C)[C@@H](C)CC)[C@@H](C)O)[C@@H](C)CC)[C@@H](C)CC)C(C)C)C(C)C) [peptide of SEQ ID NO: 228] |
|  | 203 nM | 43 % I | [NMeI]VLSLD[dV]PIGLK([γGlu-C20 diacid])KILLEQEKQKKQREQAETN[Aib]QILAQV-NH2 (N-terminus assumed; SMILES CC[C@H](C)[C@H](NC)C(=O)N[C@H](C(=O)N[C@@H](CC(C)C)C(=O)N[C@@H](CO)C(=O)N[C@@H](CC(C)C)C(=O)N[C@@H](CC(=O)O)C(=O)N[C@@H](C(=O)N1CCC[C@H]1C(=O)N[C@H](C(=O)NCC(=O)N[C@@H](CC(C)C)C(=O)N[C@@H](CCCCNC(=O)CC[C@H](NC(=O)CCCCCCCCCCCCCCCCCCC(=O)O)C(=O)O)C(=O)N[C@@H](CCCCN)C(=O)N[C@H](C(=O)N[C@@H](CC(C)C)C(=O)N[C@@H](CC(C)C)C(=O)N[C@@H](CCC(=O)O)C(=O)N[C@@H](CCC(N)=O)C(=O)N[C@@H](CCC(=O)O)C(=O)N[C@@H](CCCCN)C(=O)N[C@@H](CCC(N)=O)C(=O)N[C@@H](CCCCN)C(=O)N[C@@H](CCCCN)C(=O)N[C@@H](CCC(N)=O)C(=O)N[C@@H](CCCNC(=N)N)C(=O)N[C@@H](CCC(=O)O)C(=O)N[C@@H](CCC(N)=O)C(=O)N[C@@H](C)C(=O)N[C@@H](CCC(=O)O)C(=O)N[C@H](C(=O)N[C@@H](CC(N)=O)C(=O)NC(C)(C)C(=O)N[C@@H](CCC(N)=O)C(=O)N[C@H](C(=O)N[C@@H](CC(C)C)C(=O)N[C@@H](C)C(=O)N[C@@H](CCC(N)=O)C(=O)N[C@H](C(N)=O)C(C)C)[C@@H](C)CC)[C@@H](C)O)[C@@H](C)CC)[C@@H](C)CC)C(C)C)C(C)C) [peptide of SEQ ID NO: 229] |

From patent US20260001928A1 (CORTERIA PHARMACEUTICALS, priority 2022, published 2026)
